One sequence from US20100323906 can be followed below.

The test system of the series is XhoI. As to the kind of experiment: cleavage_in_vitro. As to conditions: 5'-dithiol on upper strand, tethered to 20 nm Au nanoparticle; rate constant at 3.5 nM enzyme (1.5e-3 s-1 at 350 pM); Mg2+ required, inhibited by 10 mM EDTA.

“AAAGGATCCAAGCTTGAATTCCTCGAGAGATCTGTCGACGATATCGGTACCAAA (double strand) [54-bp ruler dsDNA]” had an activity of 0.0058 s⁻¹.
